Test results: patent publication US8158376B2, “Bisubstrate fluorescent probe binding to protein kinases” (University of Tartu, priority 2006, dated 2012)
Read-outs that look alike come from different tables or passages of the source.

Columns and labels:
Experiment in all cases: Kinase selectivity panel
Type in all cases: biochemical
[1] = biological target: T1, MST2 (Homo sapiens, UniProt Q13188); details: read-out: residual activity (%) MST2
T1 sequence (Q13188 1-491): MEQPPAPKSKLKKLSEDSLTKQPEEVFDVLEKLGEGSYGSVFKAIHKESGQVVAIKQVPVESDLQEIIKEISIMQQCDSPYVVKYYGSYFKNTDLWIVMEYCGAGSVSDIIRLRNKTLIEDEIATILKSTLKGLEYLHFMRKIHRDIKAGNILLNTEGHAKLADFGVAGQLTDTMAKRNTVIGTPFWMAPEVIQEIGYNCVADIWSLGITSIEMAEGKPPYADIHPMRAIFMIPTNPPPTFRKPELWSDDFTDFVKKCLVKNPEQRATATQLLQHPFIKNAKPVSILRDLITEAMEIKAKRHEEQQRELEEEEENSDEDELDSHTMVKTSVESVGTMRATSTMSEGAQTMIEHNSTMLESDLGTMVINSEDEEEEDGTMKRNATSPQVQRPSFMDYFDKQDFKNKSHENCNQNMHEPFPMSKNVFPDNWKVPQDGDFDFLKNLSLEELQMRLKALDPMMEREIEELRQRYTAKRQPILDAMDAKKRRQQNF
Experimental: (§1) The panel of kinases included all 52 kinases available for testing.
(§2) The assay of protein kinases was performed at 30° C. as described previously [Davies et al., Biochem. J. 351 (2000) 95; Murray et al., Biochem. J. 384 (2004) 477].

[2] = biological target: NEK7 (Homo sapiens, UniProt Q8TDX7); details: read-out: residual activity (%) NEK7
Experimental: as §1, §2

[3] = biological target: T2, PDK1 (Homo sapiens, UniProt O15530); details: read-out: residual activity (%) PDK1
T2 sequence (O15530 1-556): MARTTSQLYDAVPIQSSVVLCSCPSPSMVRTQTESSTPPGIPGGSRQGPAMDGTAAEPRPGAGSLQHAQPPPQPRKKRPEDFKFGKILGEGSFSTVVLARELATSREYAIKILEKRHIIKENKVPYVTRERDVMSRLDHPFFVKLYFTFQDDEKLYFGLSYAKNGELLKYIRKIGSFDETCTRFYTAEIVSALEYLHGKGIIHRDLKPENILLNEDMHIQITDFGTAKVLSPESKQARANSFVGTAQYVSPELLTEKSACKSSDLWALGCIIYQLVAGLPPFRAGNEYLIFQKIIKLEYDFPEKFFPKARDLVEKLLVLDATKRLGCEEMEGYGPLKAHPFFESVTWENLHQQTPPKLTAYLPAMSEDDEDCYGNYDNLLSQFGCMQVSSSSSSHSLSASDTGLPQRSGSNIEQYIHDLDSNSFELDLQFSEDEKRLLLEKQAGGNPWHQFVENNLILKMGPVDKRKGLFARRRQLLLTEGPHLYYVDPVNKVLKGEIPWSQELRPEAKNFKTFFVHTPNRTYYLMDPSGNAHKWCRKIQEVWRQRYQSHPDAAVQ
Experimental: as §1, §2

[4] = biological target: T3, PKD1 (Homo sapiens, UniProt Q15139); details: for remaining activity at 1 µM: read-out: residual activity (%) PKD1
T3 sequence (Q15139 1-912): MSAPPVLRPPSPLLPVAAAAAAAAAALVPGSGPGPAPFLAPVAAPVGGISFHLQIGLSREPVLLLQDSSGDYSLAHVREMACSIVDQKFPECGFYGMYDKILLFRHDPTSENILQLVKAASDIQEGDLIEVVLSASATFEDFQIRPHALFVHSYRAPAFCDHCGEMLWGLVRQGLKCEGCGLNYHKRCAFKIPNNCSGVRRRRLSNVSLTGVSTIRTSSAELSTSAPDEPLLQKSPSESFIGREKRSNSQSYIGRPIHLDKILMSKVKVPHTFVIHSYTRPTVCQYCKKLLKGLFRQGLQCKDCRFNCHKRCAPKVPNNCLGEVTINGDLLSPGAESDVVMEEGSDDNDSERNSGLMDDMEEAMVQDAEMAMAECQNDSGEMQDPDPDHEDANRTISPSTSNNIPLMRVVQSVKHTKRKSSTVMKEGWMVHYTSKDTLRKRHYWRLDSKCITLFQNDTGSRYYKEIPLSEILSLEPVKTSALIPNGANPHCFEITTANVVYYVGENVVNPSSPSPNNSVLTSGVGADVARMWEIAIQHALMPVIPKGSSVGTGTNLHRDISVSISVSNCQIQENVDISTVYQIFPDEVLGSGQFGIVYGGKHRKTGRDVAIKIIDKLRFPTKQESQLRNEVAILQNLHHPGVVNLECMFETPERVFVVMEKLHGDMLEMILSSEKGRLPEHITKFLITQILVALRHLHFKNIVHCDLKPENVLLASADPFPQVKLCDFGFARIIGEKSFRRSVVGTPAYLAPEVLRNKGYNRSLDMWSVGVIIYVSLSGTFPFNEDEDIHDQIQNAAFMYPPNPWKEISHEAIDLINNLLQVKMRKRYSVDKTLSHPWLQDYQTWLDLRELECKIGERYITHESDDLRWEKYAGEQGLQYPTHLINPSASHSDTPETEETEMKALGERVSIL
Experimental: as §1, §2

[5] = biological target: T4, PRAK (Homo sapiens, UniProt Q8IW41); details: read-out: residual activity (%) PRAK
T4 sequence (Q8IW41 1-473): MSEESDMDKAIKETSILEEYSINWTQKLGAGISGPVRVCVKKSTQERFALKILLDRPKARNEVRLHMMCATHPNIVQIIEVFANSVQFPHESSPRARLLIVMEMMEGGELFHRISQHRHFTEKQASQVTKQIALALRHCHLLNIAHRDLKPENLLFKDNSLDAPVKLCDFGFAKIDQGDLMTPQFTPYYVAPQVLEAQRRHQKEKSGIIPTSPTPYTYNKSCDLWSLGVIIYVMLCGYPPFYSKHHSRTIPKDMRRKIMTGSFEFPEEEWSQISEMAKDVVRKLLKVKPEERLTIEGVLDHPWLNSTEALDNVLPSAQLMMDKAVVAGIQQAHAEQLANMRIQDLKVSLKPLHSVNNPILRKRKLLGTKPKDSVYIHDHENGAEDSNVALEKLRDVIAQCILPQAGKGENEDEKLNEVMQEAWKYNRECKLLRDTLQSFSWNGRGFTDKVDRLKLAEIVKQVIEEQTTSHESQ
Experimental: as §1, §2

[6] = biological target: SRPK1 (Homo sapiens, UniProt Q96SB4); details: read-out: residual activity (%) SRPK1
Experimental: as §1, §2

[7] = biological target: Src (Homo sapiens, UniProt P12931); details: read-out: residual activity (%) Src
Experimental: as §1, §2

SRPK1, sequence (Q96SB4 whole entry, species assumed): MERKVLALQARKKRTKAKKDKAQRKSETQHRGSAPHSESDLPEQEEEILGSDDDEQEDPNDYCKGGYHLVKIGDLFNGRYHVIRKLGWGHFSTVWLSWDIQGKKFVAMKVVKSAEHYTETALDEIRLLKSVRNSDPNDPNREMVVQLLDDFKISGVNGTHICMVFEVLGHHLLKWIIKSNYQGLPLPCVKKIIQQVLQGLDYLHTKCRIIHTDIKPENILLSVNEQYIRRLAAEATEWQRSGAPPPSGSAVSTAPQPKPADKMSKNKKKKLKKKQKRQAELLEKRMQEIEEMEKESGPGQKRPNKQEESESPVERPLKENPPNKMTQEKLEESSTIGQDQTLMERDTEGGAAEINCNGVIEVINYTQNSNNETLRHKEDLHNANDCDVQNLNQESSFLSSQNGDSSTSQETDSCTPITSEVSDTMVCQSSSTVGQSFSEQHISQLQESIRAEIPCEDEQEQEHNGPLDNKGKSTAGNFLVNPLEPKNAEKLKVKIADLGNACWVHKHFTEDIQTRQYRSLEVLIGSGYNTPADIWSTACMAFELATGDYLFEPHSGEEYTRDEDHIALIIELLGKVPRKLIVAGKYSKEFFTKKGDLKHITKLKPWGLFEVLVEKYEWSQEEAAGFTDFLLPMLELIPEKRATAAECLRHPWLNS
NEK7, sequence (Q8TDX7 whole entry, species assumed): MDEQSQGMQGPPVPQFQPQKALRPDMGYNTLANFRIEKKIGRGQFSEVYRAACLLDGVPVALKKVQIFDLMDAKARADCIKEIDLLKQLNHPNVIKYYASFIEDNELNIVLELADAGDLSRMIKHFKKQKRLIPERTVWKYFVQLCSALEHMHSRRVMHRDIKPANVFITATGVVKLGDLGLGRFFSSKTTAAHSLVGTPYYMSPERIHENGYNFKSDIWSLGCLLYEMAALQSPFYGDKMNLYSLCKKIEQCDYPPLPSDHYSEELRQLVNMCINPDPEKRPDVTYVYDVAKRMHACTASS
Src, sequence (P12931 whole entry, species assumed): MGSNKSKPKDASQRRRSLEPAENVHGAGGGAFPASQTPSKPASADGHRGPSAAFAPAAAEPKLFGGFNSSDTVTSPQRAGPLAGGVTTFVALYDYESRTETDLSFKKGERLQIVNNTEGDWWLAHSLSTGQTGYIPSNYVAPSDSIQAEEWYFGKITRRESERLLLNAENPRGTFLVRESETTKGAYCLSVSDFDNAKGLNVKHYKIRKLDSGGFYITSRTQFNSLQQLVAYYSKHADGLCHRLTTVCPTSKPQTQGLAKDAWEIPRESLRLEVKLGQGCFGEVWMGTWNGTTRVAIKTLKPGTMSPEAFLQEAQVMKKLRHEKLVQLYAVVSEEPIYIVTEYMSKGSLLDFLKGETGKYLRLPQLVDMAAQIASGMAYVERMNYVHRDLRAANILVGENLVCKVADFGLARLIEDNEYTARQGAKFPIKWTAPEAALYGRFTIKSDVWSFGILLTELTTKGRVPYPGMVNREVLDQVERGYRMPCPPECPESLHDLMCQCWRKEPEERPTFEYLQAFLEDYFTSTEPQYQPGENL

SMILES	remaining activity at 1 µM ([1]; inhibitor 1 μM, ATP 20 μM) [%]	remaining activity at 1 µM ([2]; inhibitor 1 μM, ATP 20 μM) [%]	remaining activity at 1 µM ([3]; inhibitor 1 μM, ATP 20 μM) [%]	residual activity (%) PKD1 ([4]; inhibitor 1 μM, ATP 50 μM)	remaining activity at 1 µM ([4]; inhibitor 1 μM, ATP 50 μM) [%]	remaining activity at 1 µM ([5]; inhibitor 1 μM, ATP 20 μM) [%]	remaining activity at 1 µM ([6]; inhibitor 1 μM, ATP 50 μM) [%]	remaining activity at 1 µM ([7]; inhibitor 1 μM, ATP 50 μM) [%]	remaining activity at 1 µM [1] [%]	remaining activity at 1 µM [2] [%]	remaining activity at 1 µM [3] [%]	remaining activity at 1 µM [4] [%]	remaining activity at 1 µM [5] [%]	remaining activity at 1 µM [6] [%]	remaining activity at 1 µM [7] [%]
N=C(N)NCCC[C@@H](NC(=O)[C@@H](CCCNC(=N)N)NC(=O)[C@@H](CCCNC(=N)N)NC(=O)[C@@H](CCCNC(=N)N)NC(=O)[C@@H](CCCNC(=N)N)NC(=O)[C@@H](CCCNC(=N)N)NC(=O)CCCCCNCCNS(=O)(=O)c1cccc2cnccc12)C(N)=O [Compound 26, H9-Hex(D-Arg)6-NH2]	24	56	56	9 (±1) %	< 10	97	99	88							
N=C(N)NCCC[C@@H](NC(=O)[C@@H](CCCNC(=N)N)NC(=O)[C@@H](CCCNC(=N)N)NC(=O)[C@@H](CCCNC(=N)N)NC(=O)[C@@H](CCCNC(=N)N)NC(=O)[C@@H](CCCNC(=N)N)NC(=O)CCCCCNC(=O)[C@H]1O[C@@H](n2cnc3c(N)ncnc32)[C@H](O)[C@@H]1O)C(N)=O [Compound 5, AdcAhx(D-Arg)6-NH2]									77	58	62	54	89	100	84
